Experimental data from the nanobody polyreactivity screen of Harvey et al. (2022).

Assay: yeast display, Sf9 membrane polyspecificity reagent, FACS + sequencing; frameworks hold sequencing errors
Summary of the method: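 In a synthetic yeast display library (Saccharomyces cerevisiae BJ5465), nanobody expression was induced with galactose for 36–48 hours. FACS gates were set low and high (top ~1%) using anti-HA fluorescence for expression and streptavidin fluorescence for binding of the Sf9 membrane reagent. Each polyreactivity label is drawn from the gate of origin.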

Row | Sequence | polyreactivity (PSR sort gate)
1 | QVQLVESGGGLVQAGGSLRLSCAASGILSNYYAMGWYRQAPGKERELVASIRLSGGRTYYADSVKGRFTISRDNAKNTVYLQMNSLKPEDTAVYYCAAGTRRTYSKFDYWGQGTQVTVSS | high polyreactivity
2 | QVQLVESGGGLVQAGGSLRLSCAASGINFCWYAMGWYRQAPGKERELVAAISGTGGSTYYADSVKGRFTISRDNAKNTVYLQMNSLKPEDTAVYYCAARGKSSSYYDYDYCGQGTQVTVSS | low polyreactivity
3 | QVQLVESGGGLVQAGGSLRLSCAASGINFDDNTMGWYRQAPGKERELLAAISSSGGSTYYADSVKGRFTISRDNAKNTVYFQMNSLNPEDTAVYYCAAADYYTYPYIVYRNYPEFDYWGQGTQVTVSS | low polyreactivity
4 | QVQLVESGGGLVQAGGSLRLSCAASGINFDGNVMGWYRPAPRKEREFFASISISGGSTSYADSVKGRFTISRDNAKNTVYLQMNSLKPEDTAVYYCNTDVCYGRVWRWRFHGDYWGQGTQVTVSS | low polyreactivity
5 | QVQLVESGGGLVQAGGSLRLSCAASGINFGRYAMGWYRQAPGKERELVATITVNGGRTYYADSVKGRFTISRDNAKNTVYLQMNSLKPEDTAVYYCNAEVPGHYFDGWYFYDFDYWGQGTQVTVSS | low polyreactivity
6 | QVQLVESGGGLVQAGGSLRLSCAASGINFGYYAMGWYRQAPGKERELVAAISRRGGSTYYADSVKGRFTISRDNAKNTVYLQMNSLKPEDTAVYYCYKRRAAGGFPYVYWGQGTQVTVSS | high polyreactivity
7 | QVQLVESGGGLVQAGGSLRLSCAASGINFIYNAMGWYRQAPGKERELVATISRRGGSTYYADSVKGRFTISRDNAKNTVYLQMNSLKPEVTAVYYSARDVGAGSKISRLSSYNYWGQGTQVTVSS | low polyreactivity
8 | QVQLVESGGGLVQAGGSLRLSCAASGINFNKYAMGWYRQAPGKEREFVAAITYRGGSTYYADSVKGRFTISRDNAKNTVYFQMNSLKPEDTAVYYCAARRITTYYYWGQGTQVTVSS | high polyreactivity
9 | QVQLVESGGGLVQAGGSLRLSCAASGINFVYYAKGWYRPAAGKERELVAGITVNGGNTYYADSVKGRFTLSRDNAKNTVYLQMNSLKPEDTAVYYCNADYYWVLGVFDYWGHGTQVTVSS | low polyreactivity
10 | QVQLVESGGGLVQAGGSLRLSCAASGINFYAYAMGWYRKAPGKERELVAAITFSAVSTYYADSVKGRFTISRDNAKNSVYLQMNSLKPEDTAVYYCAAEAYKQGVWDYDYWGQGTQVTVSS | low polyreactivity
11 | QVQLVESGGGLVQAGGSLRLSCAASGISFNSYTMGGYRQAPGKERELVAAITASGGTTRYADSVKGRFTISRDNAKNTVYLQMNSLKPEYTAVYYCNALPFRYGKRRGYWGQGTQVTVSS | low polyreactivity
12 | QVQLVESGGGLVQAGGSLRLSCAASGISFYSYTMGWYIQAPGKERELVAAIRGSDGSTYYADSVKGRFTLSRDNAKNTVYLQMNSLKPEVTAVYYCNRKFYWRRDYWGQGTQVTVSS | high polyreactivity
13 | QVQLVESGGGLVQAGGSLRLSCAASGITCTFNTMGWYRQAPGKERELVAGITNGGSTYYADSVKGRFTISRDNAKNTVYLQMNSLKPEDTAVYYCNAQRRLRYGWFGPYDYWGQGTQVTVSS | low polyreactivity
14 | QVQLVESGGGLVQAGGSLRLSCAASGITFAFYDKGWYRQPPGKERELVAAISYSGGGTYYADSVKGRFTISRDNAKNNVYLQMNSLKPEDTAVYYCAADPKTHPLFGEDYWGQGTQVTVSS | low polyreactivity
15 | QVQLVESGGGLVQAGGSLRLSCAASGITFALNAMGWYRQAPGKERELVAAISWSGDSTYYADSVKGRFTISRDNAKNTVYLQMNSLKPEDTAVYYCAAVAYLNWTPHYYWGQGTQVTVSS | low polyreactivity
16 | QVQLVESGGGLVQAGGSLRLSCAASGITFANYAVGWYRQAPGKERELVAAISTSGGSTYYADSVKGRFTISRDNAKNTVDLQMNSLKPEDTAVYYCAARPYPWANFGYWGQGTQVTVSS | high polyreactivity
17 | QVQLVESGGGLVQAGGSLRLSCAASGITFAPYAMGWYRQAPGKEREFVAGISWSGTTTYYADSVKGRFTISRDNAKNTVYLQMNSLKPEDTAVYYCATDYFNYGYFDFRWYYYWGQGTQVTVSS | high polyreactivity
